# Results: the supplement of paper PMC10201428
# ± gives the standard deviation of the averaged measurements.
# Tested on: VchCAST RNA-guided transposition machinery (E. coli BL21(DE3) host, lacZ target)
# Test: relative integration efficiency (T-RL orientation) vs wild-type transposon end (log2 (normalized fold change)); transposon end mutated: left end; higher = more efficient transposition
# Description: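 Pooled, barcoded VchCAST (Tn6677) mini-transposon donor libraries; each variable transposon-end sequence sits in a fixed pDonor mini-transposon context (10-bp barcode and cargo not included). Left- or right-end libraries were co-transformed with pEffector (TniQ-Cascade, TnsABC, lacZ crRNA, T7, 0.1 mM IPTG) into E. coli BL21(DE3) and grown 18 h at 37 C. T-LR and T-RL junction amplicons were sequenced; output/input barcode fold change was normalised to the mean of four wild-type barcodes and log2-transformed. Two biological replicates; zero-count/undetected variants carry floor values (-10 / -15), censored here. Barcode uncoupling by PCR recombination adds noise.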
row,Sequence,relative integration efficiency (log2)
1,AATGTTGTTGATGCAACCATAAAGTGATATTTAATAATTCAACCATAAAGTGATATTTAACTTAACCCAACCATATATTGATATCTCACAAAACAACCATAAGTTGATATTTTTGTGAATCGAGTATTTCAGCAAAACTACTGCAGTAAGAA,-4.15 ± 0.95
2,AATGTTGTTGATGCAACCATAAAGTGATATTTAATAATTATTTATAATCAGCAACTTAACCCAACCATATATTGATATCTCACAAAAACAAAACAACCATAAGTTGATATTTTTGTGAATCGAGTATTTCAGCAAAACTACTGCAGTAAGAA,-3.11 ± 0.98
3,AATGTTGTTGATGCAACCATAAAGGTCGCGGGCCGCCGGCGGGCGCCGACTACCAGGCCAACACCCCACCAACGCGCGGTCGCGAGACACCCCACCAACGCCTGGTCGCGGGGGTGTCCGATCTGATTTCAGCAAAACTACTGCAGTAAGAA,< -10
4,AATGTTGTTGATGCAACCATAAAGTGATATTTAATAATTATCAACCATATATTGATATCTCACAAAACAACCATAAGTTGATATTTTTGTGAATCGAGTATTTCAGCAAAACTACTGCAGTAAGAAAGTTACTTCGTGGTATGGGAGGATCA,-7.99 ± 0.76
5,AATGTTGTTGATGGTTGGTATTTCACTATAAATATAATTATTTATAATCAGCAACTTAACCACAAAACAACCATATATTGATATCTCACAAAACAACCATAAGTTGATATTTTTGTGAATCGAGTATTTCAGCAAAACTACTGCAGTAAGAA,-6.55 ± 1.7
6,AATGTTGTTGATGCAACCATAAAGTGATATTTAATAATTATTTATACAACCATATATTGATATCTCACAAAACAACCATAAGTTGATATTTTTGTGAATCGAGTATTTCAGCAAAACTACTGCAGTAAGAAAGTTACTTCGTGGTATGGGAG,-6.01 ± 0.81
7,AATGTTGTTGATGCAACCATAAAGTGATATTTAATAATTATTTATAATCAGCCAACCATATATTGATATCTCAACTTAACCACAAAAACAAAACAACCATAAGTTGATATTTTTGTGAATCGAGTATTTCAGCAAAACTACTGCAGTAAGAA,-7.27 ± 2.4
8,AATGTTGTTGATGCAACCATAAAGTGATATTTAATAATTATTTATAATCAGACCAGGCCAACACCCCACCAACGCGCGGTCGCGAGACACCCCACCAACGCCTGGTCGCGGGGGTGTCCGATCTGATTTCAGCAAAACTACTGCAGTAAGAA,-6.56 ± 1.8
9,AATGTTGTTGATGCAACCATAAAGTGATATTTAATAATTATTTATAATCAGCAACTTAACCACCCCCACCAACGCGCGGTCGCGAGACACCCCACCAACGCCTGGTCGCGGGGGTGTCCGATCTGATTTCAGCAAAACTACTGCAGTAAGAA,-6.56 ± 0.76
10,AATGTTGTTGATGCAACCATAAAGTGATATTTAATAATTATTTCAACCATAAAGTGATATTTAACTTCAACCATATATTGATATCTCACAAAACAACCATAAGTTGATATTTTTGTGAATCGAGTATTTCAGCAAAACTACTGCAGTAAGAA,-6.43 ± 0.89
11,AATGTTGTTGATGCAACCATAAAGTGATATTTAATAATTATTTATAATCAGCAACTTAACCACAAAAGTTGGTATATAACTATAGAGACAAAAGTTGGTATTCAACTATAAAATGTGAATCGAGTATTTCAGCAAAACTACTGCAGTAAGAA,-6.13 ± 2.2
12,AATGTTGTTGATGCAACCATAAAGTGATATTTAATAATTATTTATAATCATACCAGGCCAACACCCCACCAACGCGCGGTCGCGAGACACCCCACCAACGCCTGGTCGCGGGGGTGTCCGATCTGATTTCAGCAAAACTACTGCAGTAAGAA,-6.02 ± 1.1
13,AATGTTGTTGATGCAACCATAAAGTGATATTTAATAATTATTTATAATCAGCAACTTAACCACAAAACAACCATATATTGATAACAAAACAACCATAAGTTGATATTTTTGTGAATCGAGTATTTCAGCAAAACTACTGCAGTAAGAAAGTT,-4.08 ± 0.82
14,AATGTTGTTGATGCAACCATAAAGTGATATTTATTGACAGCTAGCTCAGTCCTAGGTATAATGCTAGCAACCATATATTGATATCTCACAAAACAACCATAAGTTGATATTTTTGTGAATCGAGTATTTCAGCAAAACTACTGCAGTAAGAA,-8.14 ± 0.72
15,AATGTTGTTGATGCAACCATAAAGTGATATTTAATAATTATTTATAATCAGCAACTTAACCAACCATATATTGATATCTCCACAAAAACAAAACAACCATAAGTTGATATTTTTGTGAATCGAGTATTTCAGCAAAACTACTGCAGTAAGAA,-2.66 ± 0.88
16,AATGTTGTTGATGACCAACGCCTGGTCGCGGGGATAATTATTTATAATCAGCAACTTAACCACAAAACAACCATATATTGATATCTCACAAAACAACCATAAGTTGATATTTTTGTGAATCGAGTATTTCAGCAAAACTACTGCAGTAAGAA,-8.86 ± 0.67
17,AATGTTGTTGATGCAACCATAAAGTGATATTTAATAATTATTTATCCGACTACCAGGCCAACACCCCACCAACGCGCGGTCGCGAGACACCCCACCAACGCCTGGTCGCGGGGGTGTCCGATCTGATTTCAGCAAAACTACTGCAGTAAGAA,-6.94 ± 1.3
18,AATGTTGTTGATGCAACCATAAAGTGATATTTAATAATTACAACCATAAAGTGATATTTAACTTAACCAACCATATATTGATATCTCACAAAACAACCATAAGTTGATATTTTTGTGAATCGAGTATTTCAGCAAAACTACTGCAGTAAGAA,-7.98 ± 1.5

row,Sequence,relative integration efficiency (log2)
1,AATGTTGTTGATGACCAACGCCTGGTCGCGGGGATAATTATTTATAATCAGCAACTTAACCACAAAAACCAACGCGCGGTCGCGAGAACAAAAACCAACGCCCTGTCGCGGGCTGTGAATCGAGTATTTCAGCAAAACTACTGCAGTAAGAA,< -10
2,AATGTTGTTGATGCAACCATAAAGTGATATTTAATAATTATTTATAATCACAACCATATATTGATATCTCGCAACTTAACCACAAAAACAAAACAACCATAAGTTGATATTTTTGTGAATCGAGTATTTCAGCAAAACTACTGCAGTAAGAA,-6.71 ± 0.83
3,AATGTTGTTGATGCAACCATAAAGTGATATTTAATAATTATTTATAATCAGCAACTTAACCCAACCATATATTGATATCTCACAAAACAACCATAAGTTGATATTTTTGTGAATCGAGTATTTCAGCAAAACTACTGCAGTAAGAAAGTTAC,-7.05 ± 1.7
4,AATGTTGTTGATGGTTGGTATTTCACTATAAATATAATTATTTATAATCAGCAACTTAACCACAAAAGTTGGTATATAACTATAGAGACAAAACAACCATAAGTTGATATTTTTGTGAATCGAGTATTTCAGCAAAACTACTGCAGTAAGAA,-8.28 ± 1.3
5,AATGTTGTTGATGCAACCATAAAGTGAGCGGGCCGCCGGCGGGCGCCGACTACCAGGCCAACACCCCACCAACGCGCGGTCGCGAGACACCCCACCAACGCCTGGTCGCGGGGGTGTCCGATCTGATTTCAGCAAAACTACTGCAGTAAGAA,-8.13 ± 0.57
6,AATGTTGTTGATGCAACCATAAAGTGATATTTAATAATTATTTATAATCAGCAACTTACAACACCCCACCAACGCGCGGTCGCGAGACACCCCACCAACGCCTGGTCGCGGGGGTGTCCGATCTGATTTCAGCAAAACTACTGCAGTAAGAA,-5.66 ± 1.2
7,AATGTTGTTGATGCAACCATAAAGTGATATTTAATAATTATGGCGCCGACTACCAGGCCAACACCCCACCAACGCGCGGTCGCGAGACACCCCACCAACGCCTGGTCGCGGGGGTGTCCGATCTGATTTCAGCAAAACTACTGCAGTAAGAA,-6.86 ± 1.3
8,AATGTTGTTGATGCAACCATAAAGTGATATTTAATAATTATTTATAATCAGCAACCATATATTGATATCTCACAAAACAACCATAAGTTGATATTTTTGTGAATCGAGTATTTCAGCAAAACTACTGCAGTAAGAAAGTTACTTCGTGGTAT,-8.36 ± 0.35
9,AATGTTGTTGATGCAACCATAAAGTGATATTTAATAATTATTTATAATCAGCAACTTAACCACAAAACAACCATATATGTCGCGAGACACCCCACCAACGCCTGGTCGCGGGGGTGTCCGATCTGATTTCAGCAAAACTACTGCAGTAAGAA,-6.15 ± 1.3
10,AATGTTGTTGATGCAACCATAAAGTGATATTTAATAATTATTTATAATCAGCAACTTCCAACACCCCACCAACGCGCGGTCGCGAGACACCCCACCAACGCCTGGTCGCGGGGGTGTCCGATCTGATTTCAGCAAAACTACTGCAGTAAGAA,-4.36 ± 1.2
11,AATGTTGTTGATGCAACCATAAAGTGATATTTAATAATTATTCAACCATAAAGTGATATTTAACTTACAACCATATATTGATATCTCACAAAACAACCATAAGTTGATATTTTTGTGAATCGAGTATTTCAGCAAAACTACTGCAGTAAGAA,-3.81 ± 1.1
12,AATGTTGTTGATGCAACCATAAAGTGATATTTAATAATTATTTATAATCAGCAACAACCATATATTGATATCTCCTTAACCACAAAAACAAAACAACCATAAGTTGATATTTTTGTGAATCGAGTATTTCAGCAAAACTACTGCAGTAAGAA,-6.46 ± 1.4
13,AATGTTGTTGATGCAACCATAAAGTGATATTTAATAATTATTTATAACAACCATATATTGATATCTCACAAAACAACCATAAGTTGATATTTTTCAGCAACTTAACCACAAAATGTGAATCGAGTATTTCAGCAAAACTACTGCAGTAAGAA,-5.63 ± 0.81
14,AATGTTGTTGATGCAACCATAAAGTGATATTTAATAATTATTTATAACAACCATAAAGTGATATTTACAACCATATATTGATATCTCACAAAACAACCATAAGTTGATATTTTTGTGAATCGAGTATTTCAGCAAAACTACTGCAGTAAGAA,-6.17 ± 1.2
15,AATGTTGTTGATGCAACCATAAAGTGATATTTAATAATTATTTATAATCATTGTGAGCGGATAACAACAACCATATATTGATATCTCACAAAACAACCATAAGTTGATATTTTTGTGAATCGAGTATTTCAGCAAAACTACTGCAGTAAGAA,-3.2 ± 0.53
16,AATGTTGTTGATGGTTGGTATTTCACTATAAATATAATTATTTATAATCAGCAACTTAACCACAAAACAACCATATATTGATATCTCACAAAAGTTGGTATTCAACTATAAAATGTGAATCGAGTATTTCAGCAAAACTACTGCAGTAAGAA,-8.45 ± 0.29
17,AATGTTGTTGATGCAACCATAAAGTGATATTTAATAATTATTTATAATCAGCAACTTAACCACCAACCATATATTGATATCTCACAAAACAACCATAAGTTGATATTTTTGTGAATCGAGTATTTCAGCAAAACTACTGCAGTAAGAAAGTT,-4.85 ± 1.1
